{"source": "patent US9657081B2", "about": "“Inhibiting peptides derived from triggering receptor expressed on myeloid cells-1 (TREM-1) TREM-like transcript 1 (TLT-1) for treatment of cardiovascular diseases” (INSERM (Institut National de la Sante et de la Recherche …, priority 2013, dated 2017)", "biological_target": "T1, TREM-1 (Mus musculus, UniProt Q9JKE2)", "T1 construct": "endogenous in cells; host or cells: living mice (C57BL, Balb/c, ApoE-/-), in vivo", "T1 sequence (Q9JKE2 21-230)": "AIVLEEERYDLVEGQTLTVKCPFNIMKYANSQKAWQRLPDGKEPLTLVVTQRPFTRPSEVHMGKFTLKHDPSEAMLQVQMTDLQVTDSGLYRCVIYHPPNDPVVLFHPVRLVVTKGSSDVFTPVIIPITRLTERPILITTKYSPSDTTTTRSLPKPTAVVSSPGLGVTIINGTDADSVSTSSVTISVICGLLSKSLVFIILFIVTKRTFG", "experiment": "Mouse myocardial infarction, myocardial inflammatory reaction and protease activity in infarcted tissue", "format": "in vivo", "settings": "myocardium after coronary artery ligation", "description": "For these experiments, myocardial lysate was obtained 24 hours after the induction of myocardial infarction from mice treated with TREM-1- and TLT-1-derived peptides or control LR12-scrambled peptide (‘controls’). Two areas were studied: a healthy area harvested distally from the infarcted zone in a control animal and an infarcted area. Data are representative of at least 5 different experiments. Results are mean±SD. p values are *p<0.001 [LR12 versus controls].\nFor these experiments, myocardial lysate was obtained 6, 24 and/or 96 hours after the induction of myocardial infarction from mice treated with TREM-1- and TLT-1-derived peptides or control LR12-scrambled peptide (‘controls’). Infarcted areas were analyzed for cytokine/chemokine production. Data are representative of at least 5 different experiments. p values are *p<0.001 [LR12 versus controls].\nFor these experiments, myocardial lysate was obtained 6, 24 and 96 hours after the induction of myocardial infarction from mice treated with TREM-1- and TLT-1-derived peptides or control LR12-scrambled peptide (‘controls’). Infarcted areas were analyzed. […]\nMice were monitored after surgery for mortality. Mice were randomized to receive or not peptides (daily ip injection for 5 days, 5 mg/kg) and monitored for survival. […]\nMMP-9 enzymatic activity in tissue extracts was determined by SDS-PAGE gelatin zymography. […]"}
{"sequence": "LQEEDAGEYGCM (listed as Homo sapiens) [TLT1-LR12]", "values": [{"measurement": "myocardial infarction-induced gene activation (innate immunity / endothelial function genes)", "value": "opposed to myocardial infarction-induced gene activation"}]}
